Measurements taken from the nanobody polyreactivity screen of Harvey et al. (2022).

test: yeast display, Sf9 membrane polyspecificity reagent, FACS + sequencing; frameworks hold sequencing errors
In short: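 In a synthetic yeast display library (Saccharomyces cerevisiae BJ5465), nanobody expression was induced with galactose for 36–48 hours. FACS gates were set low and high (top ~1%) using anti-HA fluorescence for expression and streptavidin fluorescence for binding of the Sf9 membrane reagent. Each polyreactivity label is drawn from the gate of origin.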

Sequence	polyreactivity (PSR sort gate)
QVHLVESGGGLVQAGGSLRLSCAASGRIFYGYVMGWYRQAPGTEREFVAAITWSAGSTYYADSVKGRFTISRDNAKNTVYLQMNSLKPEDTALYYCADGGGHYQEYLMEDYWGQGTQVTVSS	high polyreactivity
QVQLQERGGGLVQAGGSLRLGCEASGNISDDGYMGWYRQAPGKEREFVAAIAAGSNTNYADSVKGRFTISRDNAKNTVYLQMNSLKPVETAVFYCAVASYARVQYLYWGQGTQVTVYS	low polyreactivity
QVQLDESGGRLVQAGGSLRLSCAASGSIFKVNAMGWYRQAPGKERELVAVISKRGGSTYYADSVKGRFTISRDHAKNTVYLQMNSLKPEDTAVYYCAAGKAPPSLRWVARIGKYEYWGQGTQVTVSS	low polyreactivity
QVPLVESGGGLVQAGGSLRLSCAASGSTLAANAMGWYRQAPGKERELVAAIDGGGSTYYADSVKGRFTISRDNAKNTVYLQMNILKPDDTAVYYCATPYVWTITQKKYDYWGQGTQVTVSS	low polyreactivity
QVQLVESGGGLVQAGGSLRLSCAASGPIFHPYAMGWYRHAPGKERELVAAITNSGGITYADSVKGRFTISRDNAKNTVYLQMNSLKPEDTAVYYCNTATNRFHYKYRKPYDYWGQGTQVTVSS	low polyreactivity
QVQLVESGGGLVQAGGSLRLSCAASGLTFYYYAMGWYRQAPGKERELVATISSGGNTNYADSVKGRFTISRDNAMNTVYLQMNSLKPEDTAVYYCNADRWFHYYRYNYWGQGTQVTVSS	high polyreactivity
QVQLVESGGGLVQAGGSLRLSCAASGSIFHRNAMGWYRQAPGKEREFVAAISWRGGSTYYADSVKGRFTISRDNAKNTVYLQMNSLKPEDTAVYYCAADPVGYYWSRRSEFYYWGQGTQVTVSS	high polyreactivity
QVQLVESGGGLVQAGGSLRLSCAASGSNFVYNAMGWYRQAPGKERELVAVINKSGDTTYYADSVKGRFTISRDNAKNTVYLQMNSLKPEDTAVYYCNASGEVLAAVVTYDYWGQGTQVTVSS	low polyreactivity
QVQLVESGGGLVQAGGSLRLSCAASGYIFSYNAMGWYRQAPGKERELVAAITASGGGTYYADSVKGRFTISRDNAKNTVYLQMNSLKPEDTAVYYCAADFNDHYYWYGQDYDYWGQGTQVTVSS	low polyreactivity
QLQLVESGRGLVQAGGSLRLSCDASGYIFGWYAMGSYRQAPGKERELVAAITRGVSTNYADSVKGRFTISRENAMNTVYLQMNSLKPEDTAVYYCNTEDWAVGSPEVEYEYDYWGQGTQVTVSS	low polyreactivity
QVQLVESGGGLVQAGGSLRLSCSASGRTSDYYAMGWYRQAPGKERELVAAITSGGSTYYADSVKGRFTISRDNAKITVYFQMNSLKPEDTAVYYCAATWYWGWVFSYTSFDYWGLGTQVTVSS	low polyreactivity
QVQLVESGGGLVQAGGSLRLSCAASVSIFATNAKGWYRQAPGKERELVASISSGGGSTYYADSVKGRFTISRDNEKNTVYLQMNSLKPEDTAVYYFARRIGHGSRPYWLETWRYPYDYWGQGTQLTVSS	low polyreactivity
QVQLVESGGGLVQAGGSLRLSCAACGRILTYYAMGWYRQAPGKERELVAAISWRAGSTYYADSVKGRFTISRDNAKNTVYLQMNSLKPEDTAVYYCAAKPYYIPTRTYSHYNYWGQGTQVTVSS	high polyreactivity
QVQLVESGGVLVQAGGSLRLSCAASGSTFGKNTMGWYRQAPGKERELVAAISRGVSTYYAYSVKGRFTISRDNATNTFYLQMNSLKPEDTALYYCAAQEAYRWYGFDFWGQGTQVTVLS	high polyreactivity
QVQLVESGGGLVQAGGSLRLSCAASGFTFSRYAMGWYRPAPGKERELVAAITSSGGSTYYADSVKGRFTISRDNAKNTVYLQMNSLKPEDTAVYYCAAGKYTASNGYGYWGQGTQVTVSS	high polyreactivity
QVQLEESGGGLVQAGGSLRLSCAASGRIFWVNVMGWYRQAPGKERELVAAITRGASTYADSVKGRFTISRDNAKNTVYLQLNSLKPEDTAVYYCAVGISDFQYYDYVYWGQGTHVTVSS	high polyreactivity

Sequence	polyreactivity (PSR sort gate)
QVQLVESGGGLVQAGGSLRLSCAASGFTFSFYAMGWYIQAPGKERELVAVISKSGGRTYYADSVKGRFTISRDNAKNTVYLQMNSLKPEDTAVYYCAAKRTSTRIYTFEYWGQGTQVTVSS	high polyreactivity
QVQLVESGGGLVQAGGSLRLSCAASGITFYKNVMGWYRQAPGKERELVAAISSSGGSTYYADSVKGRFTISRDNAKNTVYLQMNSLKPEDTAVYYCAADDPLYTPYEFDYWGQGTQVTVSS	low polyreactivity
QVQLVESGVGLVQAGGRLRLSCAASGSTFLRYAMGWYRPAPGKERELVAAISYSGGSTYYADSVKGRFTISRDNAKNTVYLQMNSLKPEDTAVYYCNAGVFANDNGGRRDQFTWEYEYWGQGTQVTVSS	low polyreactivity
QVQLVESGGGLVQAGGSLRLSCAASGFTFGIYAMGWYRQAPGKERELVAAISRGGGSTYYADSVKGRFTISRDNAKNTVYLQMNSLKPEDTAVYYCAARYQSPYDYWGQGTQVTVSS	high polyreactivity
QVQLVESGGGLVQAGGSLRLSCAASGSIFSWYAMGWYRQAPGKEWELVAAITWSGGSTYYADSVKGRFTISRDNAKKTVYLQMNSLKPEDTAVYYCAASYDIYGNYRRYDYWGQGTQVTVSS	high polyreactivity
QVQLVESGGGLLQAGGSLRLSCAASGIIFRWYAMGWYSQAPGKERELVATITRSGGSTYYADSVKGRFTISRDNAKKTVYLLMKSLKPEDTAVFYCATGRYPSGRPTRNYDSVYWGHGTQVTVSS	high polyreactivity
QVQLVESGGGLVQAGGSLRLSCAASGFTFHYYAMGWYRQAPGKEWELVAAITKSGGRTSYADSVKGRFTISRDNAKNTVYLQMNSLKPEDTAVYYCAAARYRARIGNDYWGQGTQVTVSS	low polyreactivity
QVHLVESGGGLVQAGGSLRLSCAASGSTFRVYAMGWYRQAPGKERELVARISITGGTTRYADSVKGRFTISRDNAKNTVYLQMNSLKPEDTAVYYCNADYDWYYWYLYKYPFDYWGQGTQVTVSS	low polyreactivity
QVQLVESGGGLVQAGGSLRISCSASGSIFTGYAMGWYRPAPGKERELVAAISNSGTSTYYADSVKGRFTISRDNANNTVYLQMNSLKPEDTAVYYCNTVGHRWLSDDDYWGQGTQVTVSS	low polyreactivity
QVQLVESGGGLVQAGGSLRLSCAASGSIFVTNAMGWYRQAPGKERELVAAISVSGGSTYYADSVKGRFTISRDKAKNTVYLQMNSLKPEDTAVYYCNTVRSPPGHDYWGLGTQVTVSS	low polyreactivity
QDQLVESGGGLVQAGGSLRLSCAASGSTFVKYAMGWYRQAAGTERELVASITKRGGSTYYADSVKGRFTISRDKAKNTVYLQMNSLKPEDTAVYYCNAARGLYNAPKYGSIGFDYWGQGTQVTESS	high polyreactivity
QVQLVESGGGLVQAGGSLRLSCAASGSTFVPYAMGWYRQAPGKERELVAAITTSGGNTYYADSVKGRFTISRDNAKNTVYLQMNSLKPEDTAVYYCAADTYRRFDYWGEGTQVTVSS	low polyreactivity
QVQLVESGGGLVQAGGSLRLTCAASGSIFFDYGMGWYRQAPGKERELVATITRGTGSTYYADSVKGRFTISRDNAKNTVSLQMNSLKPEDTAVYYCAESYSYYNSYDYWGQGTQVTVSS	high polyreactivity
QVQLVESGGGLVQAGGSLRLSCAASGRIFRWYPMGWYRQAPGKESELDATISSTGGSTYYADSVKGRFTISRDNAKNTVYIQMNSLKPEVTAVYYCNAVVYGIFLYAWYDYWGQGTQVTVSS	low polyreactivity
QVQLQESGGGLVQAGGSLRLSCAASGSISLGRGMGWYRQAPGKREFVVTIAASVNWGTNTNYADSVKGRFTISRDNAKNTLYLQMNSLKPEDTAVYYCAVLPEWETRHDYWGHGTQVTVSS	low polyreactivity
